{
  "source": "patent US20030175848A1",
  "about": "“Substituted dithiobisnitrobenzenes and their applications” (Institut Pasteur De Lille, priority 1998, published 2003)",
  "proteins": {"B1": {"name": "trypanothione reductase from Trypanosoma cruzi (TcTR) (Trypanosoma cruzi) (protein)", "chain": "MMSKIFDLVVIGAGSGGLEAAWNAATLYKKRVAVIDVQMVHGPPFFSALGGTCVNVGCVPKKLMVTGAQYMEHLRESAGFGWEFDRTTLRAEWKKLIAVKDEAVLNINKSYEEMFRDTEGLEFFLGWGSLESKNVVNVRESADPASAVKERLETENILLASGSWPHMPNIPGIEHCISSNEAFYLPEPPRRVLTVGGGFISVEFAGIFNAYKPKDGQVTLCYRGEMILRGFDHTLREELTKQLTANGIQILTKENPAKVELNADGSKSVTFESGKKMDFDLVMMAIGRSPRTKDLQLQNAGVMIKNGGVQVDEYSRTNVSNIYAIGDVTNRVMLTPVAINEAAALVDTVFGTNPRKTDHTRVASAVFSIPPIGTCGLIEEVASKRYEVVAVYLSSFTPLMHNISGSKYKTFVAKIITNHSDGTVLGVHLLGDNAPEIIQGVGICLKLNAKISDFYNTIGVHPTSAEELCSMRTPSYYYVKGEKMEKPSEASL"}},
  "substrate": "CN(C)CCCNC(=O)c1cc(SSc2ccc([N+](=O)[O-])c(C(=O)NCCCN(C)C)c2)ccc1[N+](=O)[O-]",
  "assay": "purified protein, by the assay type",
  "conditions": "other: substrate of recombinant TcTR, 25° C., buffer A pH 7.25, 0.2 mM NADPH, * = estimated at low substrate concentrations (15-200 μM), inhibition effects",
  "experimental": "The TcTR concentration is determined by measuring the number of subunits containing FAD at 461 nm (ε=11.3 mM^−1×cm^−1); the enzymatic activity is tested as specified in (28). One TR unit corresponds to 1 μmol of T(S)2 reduced per minute at 25° C. in a buffer A (20 mM Hepes, pH 7.25 containing 1 mM EDTA and 0.15 M KCl).\nThe enzyme stock solutions used for the kinetic determinations are pure (verification in SDS-PAGE) and have a specific activity of 137 U/mg in the T(S)2 reduction test performed in the presence of 500 μM NADPH and 518 μM T(S)2 in a buffer A.\nAll the kinetic studies are carried out in the same buffer at 25° C., in the presence of 200 μM of NADPH.\nAll the tests were carried out at 25° C. in 20 mM HEPES, 1 Mm EDTA, 150 mM KCl, at pH 7.25 (buffer A) and in the presence of 0.2 mM NADPH.",
  "data": [
    {"protein": "B1", "values": [
      {"measurement": "Km", "value": 35, "unit": "µM"},
      {"measurement": "kcat", "value": 125, "unit": "s⁻¹"},
      {"measurement": "kcat/Km", "value": "3.6e+06", "unit": "M⁻¹ s⁻¹"}
    ]}
  ]
}
